Patent US6001988, “High affinity nucleic acid ligands to lectins” (NeXstar Pharmaceuticals, Inc.)

How the values were obtained:
[1] = target: T1, L-selectin (LS-Rg) (Homo sapiens, UniProt P14151 P14151:39-332); assay: filter; room temp; 1.2 nM at 37 C; Table XIV prints 110 nM; details: tags: human IgG2 Fc fusion (provided by A. Varki); label: 32P; hairpin
T1 chain: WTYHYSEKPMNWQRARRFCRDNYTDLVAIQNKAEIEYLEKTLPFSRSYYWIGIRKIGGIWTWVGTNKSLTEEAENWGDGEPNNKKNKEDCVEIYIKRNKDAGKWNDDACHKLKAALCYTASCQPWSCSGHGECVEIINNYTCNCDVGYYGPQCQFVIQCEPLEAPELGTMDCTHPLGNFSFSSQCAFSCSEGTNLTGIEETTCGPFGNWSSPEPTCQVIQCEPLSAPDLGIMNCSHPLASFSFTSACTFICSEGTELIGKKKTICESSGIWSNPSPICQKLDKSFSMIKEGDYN

[2] = target: T2, E-selectin (ES-Rg) (Homo sapiens, UniProt P16581 P16581:22-556); assay: filter; room temp, Ca/Mg buffer; details: tags: extracellular domain fused to human IgG1 Fc (provided by A. Varki); chain copies: 2 (dimeric Fc chimera, inferred)
T2 chain: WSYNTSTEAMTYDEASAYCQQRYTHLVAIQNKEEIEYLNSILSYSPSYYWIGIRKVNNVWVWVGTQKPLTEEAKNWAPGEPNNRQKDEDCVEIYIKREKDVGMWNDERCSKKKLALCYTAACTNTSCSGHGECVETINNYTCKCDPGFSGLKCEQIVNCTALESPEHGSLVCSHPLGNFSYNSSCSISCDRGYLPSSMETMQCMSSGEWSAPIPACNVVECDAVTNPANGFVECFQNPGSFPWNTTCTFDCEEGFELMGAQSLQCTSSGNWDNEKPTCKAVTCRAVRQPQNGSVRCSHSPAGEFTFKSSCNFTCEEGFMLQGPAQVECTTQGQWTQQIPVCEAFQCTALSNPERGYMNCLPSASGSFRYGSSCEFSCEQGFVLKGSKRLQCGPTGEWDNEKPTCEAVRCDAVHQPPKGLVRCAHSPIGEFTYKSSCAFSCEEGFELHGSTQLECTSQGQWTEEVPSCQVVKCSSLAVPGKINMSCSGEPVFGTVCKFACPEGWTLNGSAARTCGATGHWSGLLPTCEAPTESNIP

[3] = target: T3, P-selectin (PS-Rg) (Homo sapiens, UniProt P16109 P16109:42-321); assay: filter; room temp, Ca/Mg buffer; details: tags: lectin, EGF and first two CRD domains fused to human IgG1 Fc (provided by A. Varki); chain copies: 2 (dimeric Fc chimera, inferred)
T3 chain: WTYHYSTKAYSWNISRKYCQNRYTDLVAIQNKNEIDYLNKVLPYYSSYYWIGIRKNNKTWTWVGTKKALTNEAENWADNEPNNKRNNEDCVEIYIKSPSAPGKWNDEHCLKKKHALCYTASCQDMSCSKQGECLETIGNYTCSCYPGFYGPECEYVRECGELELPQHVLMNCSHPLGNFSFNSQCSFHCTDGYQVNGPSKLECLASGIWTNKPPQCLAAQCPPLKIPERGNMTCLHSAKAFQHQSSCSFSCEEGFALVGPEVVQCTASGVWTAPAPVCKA

[4] = target: T1, L-selectin (LS-Rg); assay: filter; room temp; 1.0 nM at 37 C; details: tags: human IgG2 Fc fusion (provided by A. Varki); label: 32P; hairpin
[5] = target: T1, L-selectin (LS-Rg); assay: filter; room temp; 970 pM at 37 C; details: tags: human IgG2 Fc fusion (provided by A. Varki); label: 32P; hairpin
[6] = target: T1, L-selectin (LS-Rg); assay: filter; room temp; 2.0 nM at 37 C; details: tags: human IgG2 Fc fusion (provided by A. Varki); label: 32P; hairpin
[7] = target: T1, L-selectin (LS-Rg); assay: filter; room temp; 3.7 nM at 37 C; details: tags: human IgG2 Fc fusion (provided by A. Varki); label: 32P; hairpin
[8] = target: T1, L-selectin (LS-Rg); assay: filter; room temp; 1.6 nM at 37 C; details: tags: human IgG2 Fc fusion (provided by A. Varki); label: 32P
[9] = target: T1, L-selectin (LS-Rg); assay: filter; room temp; 380 pM at 37 C; table prints SEQ 155, Table XII and text give 133; details: tags: human IgG2 Fc fusion (provided by A. Varki); label: 32P; hairpin
[10] = target: T1, L-selectin (LS-Rg); assay: filter; room temp; 3.4 nM at 37 C; details: tags: human IgG2 Fc fusion (provided by A. Varki); label: 32P
[11] = target: T1, L-selectin (LS-Rg); assay: filter; room temp; 8.5 nM at 37 C; details: tags: human IgG2 Fc fusion (provided by A. Varki); label: 32P; hairpin

B1: 201 (ssDNA)
DNA: CTACCTACGATCTGACTAGCCAAGGTAACCAGTACAAGGTGCTAAACGTAATGGCTTCGGCTTACTCTCATGTAGTTCC
Q: Which results are given for B1?
A: Kd [1]: 0.11 nM; Kd [2]: 37 nM; Kd [3]: 1000 nM

B2: 183 (ssDNA)
DNA: CTACCTACGATCTGACTAGCGGCATCCCTGAGTCATTACAAGGTTCTTAACGTAATGTACGCTTACTCTCATGTAGTTCC
Q: For B2, which Kd [4] is on record?
A: The Kd was 0.17 nM.

B3: 193 (ssDNA)
DNA: CTACCTACGATCTGACTAGCCCAGGAGCACAGTACAAGGTGTTAAACGTAATGTCTGGTGCTTACTCTCATGTAGTTCC
Q: How did the Kd [5] turn out when B3 was run?
A: Its Kd is 0.088 nM.

B4: 182 (ssDNA)
DNA: CTACCTACGATCTGACTAGCTAGTGCTCCACGTATTCAAGGTGCTAAACGAAGACGGCCTGCTTACTCTCATGTAGTTCC
Q: For B4, which Kd [6] is on record?
A: Its Kd is 0.13 nM.

B5: 204 (ssDNA)
DNA: CTACCTACGATCTGACTAGCGGAACACGTGAGGTTTACAAGGCACTCGACGTAAACACTTGCTTACTCTCATGTAGTTCC
Q: For B5, which Kd [2] is on record?
A: The Kd was 1500 nM.

Q: And the Kd [3]?
A: Its Kd is 2900 nM.

Q: And the Kd [7]?
A: Its Kd is 0.1 nM.

B6: 239 (ssDNA)
DNA: CTACCTACGATCTGACTAGCCCACAGACAATCGCAGTCCCCGTGTAGCTCTGGGTGTCTGCTTACTCTCATGTAGTTCC
Q: With B6 as the binder, how does the Kd [8] read?
A: Its Kd is 0.17 nM.

B7: 208 (ssDNA)
DNA: CTACCTACGATCTGACTAGCCACGTTTCAAGGGGTTACACGAAACGATTCACTCCTTGGCGCTTACTCTCATGTAGTTCC
Q: Which Kd [9] does the source give for B7 here?
A: The Kd was 0.11 nM.

B8: 196 (ssDNA)
DNA: CTACCTACGATCTGACTAGCTGGCGGTACGGGCCGTGCACCCACTTACCTGGGAAGTGAGCTTACTCTCATGTAGTTCC
Q: What does the source list for B8?
A: Kd [2]: 50 nM; Kd [3]: 3400 nM; Kd [10]: 0.13 nM

B9: 108 (ssDNA)
DNA: CTACCTACGATCTGACTAGCGAGTAGCCAAGGCGTTAGACGGAGGGGGAATGTGAGCACAGCTTACTCTCATGTAGTTCC
Q: How did the Kd [11] turn out when B9 was run?
A: The Kd was 0.16 nM.
